# Reference: patent publication US20100184108
# T1: 15-residue histone H3 trimethylated Lys9 (H3K9me3) substrate peptide, H2N-ARTKQTARK(tri-methyl)STGGKA-amide
# T1 chain: ARTKQTARKSTGGKA
# B1: catalytic domain, residues 1-350, of the human histone demethylase JMJD2A (protein)
# chain: MASESETLNPSARIMTFYPTMEEFRNFSRYIAYIESQGAHRAGLAKVVPPKEWKPRASYDDIDDLVIPAPIQQLVTGQSGLFTQYNIQKKAMTVREFRKIANSDKYCTPRYSEFEELERKYWKNLTFNPPIYGADVNGTLYEKHVDEWNIGRLRTILDLVEKESGITIEGVNTPYLYFGMWKTSFAWHTEDMDLYSINYLHFGEPKSWYSVPPEHGKRLERLAKGFFPGSAQSCEAFLRHKMTLISPLMLKKYGIPFDKVTQEAGEFMITFPYGYHAGFNHGFNCAESTNFATRRWIEYGKQAVLCSCRKDMVKISMDVFVRKFQPERYKLWKAGKDNTVIDHTLPTPEA
# Biological target: T1, 15-residue histone H3 trimethylated …
protein,measurement,value
B1,"fluorescence of the formaldehyde-Luminos reagent adduct (demethylase activity, positive control assay)","57,000±400 relative fluorescence units"
same,fold reduction in the fluorescence signal when a component is omitted,"Omission of 2-OG, the H3K9me3 peptide, or JMJD2A results in a ˜30-fold reduction in the fluorescence signal"
same,signal to background ratio (positive control reactions against negative control assays),signal to background ratio of 20:1 or greater
